Our source for the normalised SPOT signal, Boehringer light units (BLU); mean over the file's lines of this peptide values is PMC314469, “Protein Interaction Networks by Proteome Peptide Scanning” (PLoS Biology, 2004).

T1: Abp1 SH3 (ABP1_YEAST), P15891
T1 chain: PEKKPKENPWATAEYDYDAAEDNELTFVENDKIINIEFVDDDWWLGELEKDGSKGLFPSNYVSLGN

This experiment has as its target T1, Abp1 SH3 (ABP1_YEAST), P15891. The experiment in a line: SPOT array.
With KGPDVEFLMIPFRP [YOR188W 88-101], the normalised SPOT signal, Boehringer light units (BLU); mean over the file's lines of this peptide is 114. Take KDPKSFPPPPLKP [YBR108W 81-93]: the normalised SPOT signal, Boehringer light units (BLU); mean over the file's lines of this peptide was 1320.

Take KIEGSIPENEPSKP [YHR102W 306-319]: the normalised SPOT signal, Boehringer light units (BLU); mean over the file's lines of this peptide amounted to 97.5.

In turn, KELSRLTYYGPEKP [YLR305C 1008-1021] showed a normalised SPOT signal, Boehringer light units (BLU); mean over the file's lines of this peptide of 116. KETVTKQPTEEKP [YNL110C 11-23] had a normalised SPOT signal, Boehringer light units (BLU); mean over the file's lines of this peptide of 94.1.

As for KELKWADPRSFKP [YOR168W 156-168], the normalised SPOT signal, Boehringer light units (BLU); mean over the file's lines of this peptide was 378. With KDPANISMILPSKP [YBR260C 525-538], the normalised SPOT signal, Boehringer light units (BLU); mean over the file's lines of this peptide is 112. The same measure for KDVQPFIPKSLRP [YGR175C 289-301]: 2320; for KHSTDEKPNFTKP [YLR087C 2329-2341]: 125.

Take KDDKAMEPPNEKP [YDL193W 7-19]: the normalised SPOT signal, Boehringer light units (BLU); mean over the file's lines of this peptide was 118. On to KEYTRFNQIFPKKP [YDR182W 159-172], for which the normalised SPOT signal, Boehringer light units (BLU); mean over the file's lines of this peptide amounted to 54.

For the molecule KDIPVKSDDTPAKP [YGL009C 527-540], the normalised SPOT signal, Boehringer light units (BLU); mean over the file's lines of this peptide was 75.1. With KHKQHKPKVKPSKP [YHL007C 233-246], the normalised SPOT signal, Boehringer light units (BLU); mean over the file's lines of this peptide was found to be 13.3.

KGFRFNLPPTDRP [YGR202C 91-103] gave a normalised SPOT signal, Boehringer light units (BLU); mean over the file's lines of this peptide of 166. As to KGIIMDAKFHPFKP [YMR049C 639-652], the normalised SPOT signal, Boehringer light units (BLU); mean over the file's lines of this peptide turned out to be 898. As to KFSSDNDPLQYRP [YBR033W 108-120], the normalised SPOT signal, Boehringer light units (BLU); mean over the file's lines of this peptide was 71.3. The same measure for KHAAKIDLVEPVKP [YBR261C 84-97]: 121; for KDSPSFLPGQQRP [YNL167C 92-104]: 71.8. In turn, KFMSAIKPANQKP [YAL024C 394-406] displayed a normalised SPOT signal, Boehringer light units (BLU); mean over the file's lines of this peptide of 2680. In the case of KGVRNIMIPFPNRP [YOR093C 1313-1326], the normalised SPOT signal, Boehringer light units (BLU); mean over the file's lines of this peptide was found to be 273. For KGMENELPFMKRP [YIL077C 15-27], the normalised SPOT signal, Boehringer light units (BLU); mean over the file's lines of this peptide was 332. Next, KEKKVTFDIEPYKP [YBR143C 103-116]: 63.6.
